Source: patent US20150291692A1

Legend:
[1] = target: KIR3DL2 on fresh Sezary Syndrome cells of patients (human) (UniProt P43630); experiment: flow cytometry of whole blood of a Sezary Syndrome patient, antibody + GaM-PE against CD4; upper gate (CD4+ cells)
[2] = target: NK cells, including normal KIR3DL2+ NK cells (Homo sapiens) (UniProt P43630); experiment: flow cytometry of whole blood of a Sezary Syndrome patient, antibody + GaM-PE against CD4; lower gate (CD4-negative NK cells)
Chain of NK cells, including normal KIR3DL2+ NK cells (Homo sapiens) (P43630 22-455 limits assumed): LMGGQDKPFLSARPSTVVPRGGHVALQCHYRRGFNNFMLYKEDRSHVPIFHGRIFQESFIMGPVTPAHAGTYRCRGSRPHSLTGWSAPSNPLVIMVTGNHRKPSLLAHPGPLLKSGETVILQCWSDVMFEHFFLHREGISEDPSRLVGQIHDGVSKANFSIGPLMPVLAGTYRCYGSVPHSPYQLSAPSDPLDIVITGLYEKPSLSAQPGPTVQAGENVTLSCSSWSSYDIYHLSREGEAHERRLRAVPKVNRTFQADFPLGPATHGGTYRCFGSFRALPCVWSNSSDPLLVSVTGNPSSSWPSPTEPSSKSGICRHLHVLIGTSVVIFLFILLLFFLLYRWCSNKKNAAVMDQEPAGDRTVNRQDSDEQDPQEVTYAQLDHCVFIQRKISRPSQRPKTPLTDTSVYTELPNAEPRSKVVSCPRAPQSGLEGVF

Chain of KIR3DL2 on fresh Sezary Syndrome cells of patients (human) (P43630 22-455): as the sequence (P43630 22-455 limits assumed) above

In the case of Isotype Control (antibody), the % of cells in gate CD4 GaM PE+ [1] is reported as 0.1% and the % of cells in gate NK GaM PE+ [2] is reported as 0.9%.
